The series “SEC” concerns the molecule itself. The experiment in a line: SEC. (In general: In gel filtration, larger molecules generally elute earlier.)
Series [1] concerns the target T1, His-MBP-FBXL17^310-701/Skp1 complex ( | human, UniProt Q9UF56;P63208). The experiment in a line: FRET or BRET.
The series “FRET or BRET” concerns the molecule itself. The experiment in a line: FRET or BRET.
In series [2] the target is T1, His-MBP-FBXL17^310-701/Skp1 complex. The experiment in a line: pull-down.
The target in series [3] is FBXL17^310-701 (tags removed, in the structures) (UniProt Q9UF56 310-701). Briefly: crystal structure.
Chain of FBXL17^310-701 (tags removed, in the structures) (Q9UF56 310-701): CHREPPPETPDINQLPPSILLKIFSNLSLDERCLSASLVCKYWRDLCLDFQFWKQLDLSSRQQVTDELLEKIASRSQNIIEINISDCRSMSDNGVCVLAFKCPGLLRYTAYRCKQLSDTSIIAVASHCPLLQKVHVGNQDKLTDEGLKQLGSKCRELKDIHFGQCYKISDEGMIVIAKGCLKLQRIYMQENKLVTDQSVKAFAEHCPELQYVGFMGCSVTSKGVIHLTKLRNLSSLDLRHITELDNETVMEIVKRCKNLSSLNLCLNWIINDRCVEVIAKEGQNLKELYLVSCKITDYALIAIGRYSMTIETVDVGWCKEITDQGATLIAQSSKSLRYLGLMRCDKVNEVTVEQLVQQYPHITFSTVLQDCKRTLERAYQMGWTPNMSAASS

Results on 4 molecules are retold here after publication PMC8024055 (Nature, 2020).

A word on the stoichiometry N: it is a count of units in the complex or per binding partner.

T1 sequence (Q9UF56 310-701, chain 1 of 2): as the sequence (Q9UF56 310-701) above
T1 sequence (P63208 whole entry, chain 2 of 2): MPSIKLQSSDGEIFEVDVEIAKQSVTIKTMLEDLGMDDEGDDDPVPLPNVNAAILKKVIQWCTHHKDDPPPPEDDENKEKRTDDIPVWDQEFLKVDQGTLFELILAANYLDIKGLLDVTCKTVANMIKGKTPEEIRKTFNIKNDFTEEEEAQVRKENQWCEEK

B1: KEAP1^48-180 S172A (recombinant BTB domain, called wild type) (domain or fragment)
chain: GNRTFSYTLEDHTKQAFGIMNELRLSQQLCDVTLQVKYQDAPAAQFMAHKVVLASSSPVFKAMFTNGLREQGMEVVSIEGIHPKVMERLIEFAYTASISMGEKCVLHVMNGAVMYQIDSVVRACADFLVQQLD
In the case of B1, in the series “SEC”, the “stoichiometry N” value worked out at 2.

B2: KEAP1^48-180 S172A/V98A (recombinant BTB domain) (domain or fragment)
chain: GNRTFSYTLEDHTKQAFGIMNELRLSQQLCDVTLQVKYQDAPAAQFMAHKAVLASSSPVFKAMFTNGLREQGMEVVSIEGIHPKVMERLIEFAYTASISMGEKCVLHVMNGAVMYQIDSVVRACADFLVQQLD
In the case of B2, in “SEC”, the “stoichiometry N” value amounted to 2.

B3: KEAP1^48-180 S172A/F64A/R116C labeled with Alexa Fluor 555 or Alexa Fluor 647 (domain or fragment)
chain: GNRTFSYTLEDHTKQAAGIMNELRLSQQLCDVTLQVKYQDAPAAQFMAHKVVLASSSPVFKAMFTNGLCEQGMEVVSIEGIHPKVMERLIEFAYTASISMGEKCVLHVMNGAVMYQIDSVVRACADFLVQQLD
Take B3: the binding result (in series [1]; in the series “FRET or BRET”) was “binds” in each case.

B4: KEAP1^48-180 S172A/F64A (recombinant BTB domain) (domain or fragment)
chain: GNRTFSYTLEDHTKQAAGIMNELRLSQQLCDVTLQVKYQDAPAAQFMAHKVVLASSSPVFKAMFTNGLREQGMEVVSIEGIHPKVMERLIEFAYTASISMGEKCVLHVMNGAVMYQIDSVVRACADFLVQQLD
On to B4, for which the binding result in series [2] and in series [3] was “binds” throughout. Further, the “stoichiometry N” value in “SEC” amounted to 2.
